# According to patent US11466286B2, “Methods and compositions for conferring and/or enhancing herbicide tolerance using protoporphyrinogen oxidase or variant thereof” (FarmHannong Co., Ltd., priority 2016, dated 2022):
# Where a chain is given by its changes, count along the chain named. In names and notes the source's numbering stands.
# B1: CyPPO10 V165S + F360V: CyPPO10 (SEQ ID NO: 2) PPO variant (protein)
# chain: MIEVDVAIVGGGLSGLSVAWRLQRSAPHYSGVLLEASDRLGGNITTQAAEGFVWELGPNSFAPTPALLQLIAEVGLHSELIRGDRHLPRYIYWRGELYPLEPTRPLALATSNLLSPWGKVRAALGALGFVPPYLGSGDESVDSFFRRHLGQEVAERLVAPFVSGSYAGDPQQLSAAAAFRRIAQLEKLGGSLIAGALRLRRQQPPQPKPPAQVQMRPGELGSFREGLAALPRAIAQQLKAPLHLQTPVEAITPEPKGGYLLRSGEQTWHARSVVLATPAYQTAELVAPFQPAIARALATIPYPTVACVVLAYPAGLGRSVRPGFGVLVPRGQGIRTLGTIWSSCLFPQRTPAGWQVFTSVIGGATDPDLASLREEAIVEQVQQDLTRLLDLPAAKARLLGMKVWRRAIPQYIVGYPQQWQQVTHALTQTPGLFLCSNYAEGVALGDRVEHGNRTAAAVAAYLAGGQS
# modifications: Synthetic CyPPO10
# B2: CyPPO10 V305T + F360I: CyPPO10 (SEQ ID NO: 2) PPO variant (protein)
# chain: B1 chain with S165V, V305T, V360I
# modifications: Synthetic CyPPO10
# B3: CyPPO10 Q184G: CyPPO10 (SEQ ID NO: 2) PPO variant (protein)
# chain: B1 chain with S165V, Q184G, V360F
# modifications: Synthetic CyPPO10
# B4: CyPPO10 V305L + F360M: CyPPO10 (SEQ ID NO: 2) PPO variant (protein)
# chain: B1 chain with S165V, V305L, V360M
# modifications: Synthetic CyPPO10
# B5: CyPPO10 R89A + V305T + F360M: CyPPO10 (SEQ ID NO: 2) PPO variant (protein)
# chain: B1 chain with R89A, S165V, V305T, V360M
# modifications: Synthetic CyPPO10
# B6: CyPPO10 S60T + V165S + F360M: CyPPO10 (SEQ ID NO: 2) PPO variant (protein)
# chain: B1 chain with S60T, V360M
# modifications: Synthetic CyPPO10
# B7: CyPPO10 R89L + F360I: CyPPO10 (SEQ ID NO: 2) PPO variant (protein)
# chain: B1 chain with R89L, S165V, V360I
# modifications: Synthetic CyPPO10
# B8: CyPPO10 V165C: CyPPO10 (SEQ ID NO: 2) PPO variant (protein)
# chain: B1 chain with S165C, V360F
# modifications: Synthetic CyPPO10
# B9: CyPPO10 A167C + F360M: CyPPO10 (SEQ ID NO: 2) PPO variant (protein)
# chain: B1 chain with S165V, A167C, V360M
# modifications: Synthetic CyPPO10
# B10: CyPPO10 V165C + A167I + F360M: CyPPO10 (SEQ ID NO: 2) PPO variant (protein)
# chain: B1 chain with S165C, A167I, V360M
# modifications: Synthetic CyPPO10
# B11: CyPPO10 A167I + F360M: CyPPO10 (SEQ ID NO: 2) PPO variant (protein)
# chain: B1 chain with S165V, A167I, V360M
# modifications: Synthetic CyPPO10
# B12: CyPPO10 A167L: CyPPO10 (SEQ ID NO: 2) PPO variant (protein)
# chain: B1 chain with S165V, A167L, V360F
# modifications: Synthetic CyPPO10
# B13: CyPPO10 I408R + F360M: CyPPO10 (SEQ ID NO: 2) PPO variant (protein)
# chain: B1 chain with S165V, V360M, I408R
# modifications: Synthetic CyPPO10
# B14: CyPPO10 V165C + A167C + F360M: CyPPO10 (SEQ ID NO: 2) PPO variant (protein)
# chain: B1 chain with S165C, A167C, V360M
# modifications: Synthetic CyPPO10
# B15: CyPPO10 R89V + F360I: CyPPO10 (SEQ ID NO: 2) PPO variant (protein)
# chain: B1 chain with R89V, S165V, V360I
# modifications: Synthetic CyPPO10
# B16: CyPPO10 F161A: CyPPO10 (SEQ ID NO: 2) PPO variant (protein)
# chain: B1 chain with F161A, S165V, V360F
# modifications: Synthetic CyPPO10
# B17: CyPPO10 R89A + A167L + F360M: CyPPO10 (SEQ ID NO: 2) PPO variant (protein)
# chain: B1 chain with R89A, S165V, A167L, V360M
# modifications: Synthetic CyPPO10
# B18: CyPPO10 F324V: CyPPO10 (SEQ ID NO: 2) PPO variant (protein)
# chain: B1 chain with S165V, F324V, V360F
# modifications: Synthetic CyPPO10
# B19: CyPPO10 V165C + F360M: CyPPO10 (SEQ ID NO: 2) PPO variant (protein)
# chain: B1 chain with S165C, V360M
# modifications: Synthetic CyPPO10
# B20: CyPPO10 I408W + F360M: CyPPO10 (SEQ ID NO: 2) PPO variant (protein)
# chain: B1 chain with S165V, V360M, I408W
# modifications: Synthetic CyPPO10
# B21: CyPPO10 A167L + F360I: CyPPO10 (SEQ ID NO: 2) PPO variant (protein)
# chain: B1 chain with S165V, A167L, V360I
# modifications: Synthetic CyPPO10
# B22: CyPPO10 R89A: CyPPO10 (SEQ ID NO: 2) PPO variant (protein)
# chain: B1 chain with R89A, S165V, V360F
# modifications: Synthetic CyPPO10
# B23: CyPPO10 V305M + F360M: CyPPO10 (SEQ ID NO: 2) PPO variant (protein)
# chain: B1 chain with S165V, V305M, V360M
# modifications: Synthetic CyPPO10
# B24: CyPPO10 V165C + A167L + F360M: CyPPO10 (SEQ ID NO: 2) PPO variant (protein)
# chain: B1 chain with S165C, A167L, V360M
# modifications: Synthetic CyPPO10
# B25: CyPPO10 S60T + V165S + F360I: CyPPO10 (SEQ ID NO: 2) PPO variant (protein)
# chain: B1 chain with S60T, V360I
# modifications: Synthetic CyPPO10
# B26: CyPPO10 S60T + I340T + F360I: CyPPO10 (SEQ ID NO: 2) PPO variant (protein)
# chain: B1 chain with S60T, S165V, I340T, V360I
# modifications: Synthetic CyPPO10
# Tested on: CyPPO10
# Assay: PPO enzyme activity and IC50 by herbicides, CyPPO10 wild type and variants (MBP-PPO fusion)
# Format: biochemical, Thermosynechococcus elongatus BP-1
# Conditions: PPO enzyme activity of CyPPO10 protein, wild type = 100
# Description: The enzyme activities of PPO protein and PPO protein variants were examined, and inhibition assay by PPO-inhibiting herbicides was conducted. It was confirmed that the PPO protein has low water-solubility, but in case of being expressed as a fusion protein with MBP (maltose binding protein) (MBP-PPO), the PPO protein is able to be stably expressed as water-soluble form. Therefore, the wild type and variant proteins which were expressed in the form of fusion protein with MBP were used in the present test (refer to FIG. 4).
# In order to express wild type genes and mutant genes of CyPPO10 and CyPPO13 (refer to Example 1 and Example 4), those genes were introduced to pMAL-c2X vector (refer to FIG. 5) respectively, and then cloned to BL21 (DE3) E. coli (CodonPlus).
# The enzyme activity of the purified wild type protein and variant proteins of CyPPO10 and CyPPO13 was measured by the following process.
# At first, a substrate of PPO protein, Protoporphyrinogen IX was synthesized. This process was performed in the space where nitrogen gas is streamed. 6 mg of protoporphyrin IX was dissolved in 20% (v/v) EtOH 20 ml, and stirred under dark condition for 30 minutes. The obtained protoporphyrinogen IX solution was put into a 15 ml screw tube in an amount of 800 and flushed with nitrogen gas for 5 minutes. To this, 1 g of sodium amalgam was added and vigorous shaking was performed for 2 minutes. The lid was open to exhaust hydrogen gas in the tube. Thereafter, the lid was closed and incubated for 3 minutes. The […] was filtered using syringe and cellulose membrane filter. To 600 μl of the obtained […], 2M MOPS [3-(N-morpholino)propanesulfonic acid] was added in an amount of approximately 300 thereby adjusting pH to 8.0. To determine the enzyme activity of PPO protein, a reaction mixture was prepared with the following composition (based on 10 ml): 50 mM Tris-Cl (pH 8.0); 50 mM NaCl; 0.04% (v/v) Tween 20; 40 mM glucose (0.072 g); 5 units glucose oxidase (16.6 mg); and 10 units catalase (1 μl).
# Two hundred microliters (200 μl) of reaction mixture containing a purified PPO protein were placed in 96 well plates, and preincubated for 30 min at room temperature to reduce the oxygen concentration by the reaction of glucose oxidase-catalase. The mineral oil was layered and then the reaction was initiated by adding the substrate, […], to a final concentration of 50 μM. The reaction proceeded at room temperature for 30 min and the fluorescence of protoporphyrin IX was measured using Microplate reader (Sense, Hidex) (excitation: 405 nm; emission: 633 nm). To calculate the PPO enzyme activity, protoporphyrinogen IX solution was kept open in the air to oxidize the solution (overnight). To this, 2.7N HCl was added, and the absorbance at 408 nm was measured. A standard curve was generated using standard protoporphyrin IX, and the PPO activity was measured by calibration of protoporphyrin IX using the standard curve of protoporphyrin IX.
# The final concentration of each herbicide was as follows: […]
row,Molecule,Activity (%)
1,B1,52
2,B2,10
3,B3,97
4,B4,82
5,B5,5
6,B6,17
7,B7,51
8,B8,99
9,B9,90
10,B10,75
11,B11,85
12,B12,95
13,B13,5
14,B14,91
15,B15,57
16,B16,92
17,B17,7
18,B18,59
19,B19,93
20,B20,5
21,B21,32
22,B22,83
23,B23,87
24,B24,83
25,B25,12
26,B26,5
